T1: recombinant human GPR1 receptor (human, UniProt P46091 1-355)
T1 sequence: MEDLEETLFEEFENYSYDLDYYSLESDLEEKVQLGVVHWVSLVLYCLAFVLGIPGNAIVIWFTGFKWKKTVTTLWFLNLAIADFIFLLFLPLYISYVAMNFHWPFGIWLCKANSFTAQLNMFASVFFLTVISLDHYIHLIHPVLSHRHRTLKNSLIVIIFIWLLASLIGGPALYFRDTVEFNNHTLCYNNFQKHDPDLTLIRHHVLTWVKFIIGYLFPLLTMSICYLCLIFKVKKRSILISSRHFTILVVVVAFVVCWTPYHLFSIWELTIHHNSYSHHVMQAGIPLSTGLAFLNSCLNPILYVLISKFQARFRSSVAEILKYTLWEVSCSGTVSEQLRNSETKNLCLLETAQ

This assay deals with T1, recombinant human GPR1 receptor. Description: cell-based or functional assay.
d-Ser14-Humanin (peptide): the EC50 of beta-arrestin2 recruitment (agonistic activity), CHO-K1-hGPR1-Beta-arrestin 2 PathHunter cells turned out to be 92.8 nM.

Take MAPRGFSALLLLTSEIDLPVKRRA [Ala8-Humanin]: the “EC50 of beta-arrestin2 recruitment (agonistic activity), CHO-K1-hGPR1-Beta-arrestin 2 PathHunter cells” value (“EC50 of beta-arrestin2 recruitment” below) was 55.6 nM.

As to MAPRGFSCLLLLTGEIDLPVKRRA [Gly14-Humanin], the “EC50 of beta-arrestin2 recruitment” value worked out at 46.1 nM.

Consider MAPRGFSCLLLLTSEIDLPVKRRA [Humanin], for which the “EC50 of beta-arrestin2 recruitment” value was 60.9 nM.

The record behind these values is US20120202221A1 (ACTELION PHARMACEUTICALS, published 2012).
